Patent publication US20040121956A1 (PHARMACIA AND UPJOHN, published 2004)
Where no end group is shown, it is not given here.

Assays:
DmGPCR1 (PnuFlyPep34651) = target: T1, DmGPCR1 (PnuFlyPep34651) (Drosophila melanogaster); test: cell-based or functional assay
T1 chain: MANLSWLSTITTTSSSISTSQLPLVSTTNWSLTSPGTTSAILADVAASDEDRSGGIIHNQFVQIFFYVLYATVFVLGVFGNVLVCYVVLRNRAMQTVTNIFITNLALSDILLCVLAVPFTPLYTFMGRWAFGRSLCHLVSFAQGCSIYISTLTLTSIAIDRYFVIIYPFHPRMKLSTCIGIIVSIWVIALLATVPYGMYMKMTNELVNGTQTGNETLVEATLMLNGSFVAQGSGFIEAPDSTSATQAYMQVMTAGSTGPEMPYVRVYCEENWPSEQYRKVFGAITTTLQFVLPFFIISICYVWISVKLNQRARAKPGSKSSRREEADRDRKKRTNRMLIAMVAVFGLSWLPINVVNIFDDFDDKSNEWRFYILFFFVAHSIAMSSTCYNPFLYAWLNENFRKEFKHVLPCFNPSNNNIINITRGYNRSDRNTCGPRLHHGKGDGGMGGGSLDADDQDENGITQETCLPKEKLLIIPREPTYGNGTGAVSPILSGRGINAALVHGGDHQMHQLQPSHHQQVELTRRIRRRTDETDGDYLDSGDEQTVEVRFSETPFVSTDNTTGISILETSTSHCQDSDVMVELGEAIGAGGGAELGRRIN

DmGPCR6a (M811490) = target: T2, DmGPCR6a (M811490) (Drosophila melanogaster, UniProt P25931 1-464); test: cell-based or functional assay
T2 sequence (looked up): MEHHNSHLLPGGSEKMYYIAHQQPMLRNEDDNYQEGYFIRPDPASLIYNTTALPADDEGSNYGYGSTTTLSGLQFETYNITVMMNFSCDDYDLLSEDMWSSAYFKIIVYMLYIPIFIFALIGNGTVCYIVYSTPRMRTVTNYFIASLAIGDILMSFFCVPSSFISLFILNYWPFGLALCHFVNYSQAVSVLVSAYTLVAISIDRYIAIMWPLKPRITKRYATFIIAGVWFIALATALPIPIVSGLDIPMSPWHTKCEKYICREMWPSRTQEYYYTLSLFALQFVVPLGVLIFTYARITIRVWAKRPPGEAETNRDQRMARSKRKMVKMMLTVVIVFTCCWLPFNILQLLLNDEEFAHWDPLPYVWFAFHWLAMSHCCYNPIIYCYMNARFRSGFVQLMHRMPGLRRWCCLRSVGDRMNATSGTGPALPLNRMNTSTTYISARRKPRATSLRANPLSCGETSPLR

| Binder | EC50, FLIPR assay (DmGPCR1 (PnuFlyPep34651)) [nM] | GTPγS binding, fold increase, 5 µM NPFF (DmGPCR6a (M811490)) [fold] |
| --- | --- | --- |
| ARGPQLRLRF-NH2 [ARGPQLRLRF-NH2] | 100 to 200 | – |
| FLFQPQRF-NH2 [human NPFF (FLFQPQRF-NH2)] | – | 4 |
